Biological target: T1, His-H1.0 fusion protein (histone H1.0) (UniProt P07305 2-194)
T1 construct: histone H1.0; Used in the pull-down and as analyte in SPR; source: E. coli BL21, purified (Ni-NTA Sepharose)
Test: SPR; BIAcore T200; His-NS1 amine-coupled on a CM5 chip (600 RU); H1.0 at 0-500 nM in PBS flowed over, 30 uL/min, dissociation 360 s
Conditions: both partners purified

T1 sequence (P07305 2-194): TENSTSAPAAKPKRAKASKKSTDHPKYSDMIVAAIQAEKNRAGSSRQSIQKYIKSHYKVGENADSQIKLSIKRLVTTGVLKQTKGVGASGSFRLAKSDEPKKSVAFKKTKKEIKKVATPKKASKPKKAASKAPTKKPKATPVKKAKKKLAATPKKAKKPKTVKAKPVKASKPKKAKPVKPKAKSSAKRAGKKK

B1: His-NS1 fusion protein (respiratory syncytial virus nonstructural protein 1) (natural protein)
chain: MGSNSLSMIKVRLQNLFDNDEVALLKITCYTDKLIHLTNALAKAVIHTIKLNGIVFVHVITSSDICPNNNIVVKSNFTTMPVLQNGGYIWEMMELTHCSQPNGLLDDNCEIKFSKKLSDSTMTNYMNQLSELLGFDLNP
notes: nonstructural protein 1 (NS1) of respiratory syncytial virus; Immobilised by amine coupling on the CM5 chip; source: E. coli BL21, purified
Work on B1 yielded a Kd of 31.2 nM and a kon of 25400 M⁻¹ s⁻¹.

Reference: article PMC12596378, “Nonstructural Protein 1 Mediates HMGB1 Release by Targeting Histone H1.0 After Respiratory Syncytial Virus Infection In Vivo and In Vitro” (Inflammation, 2025)
